Legend:
[1] = molecular target: T1, human TROP-2 (hTROP-2) (human); test: FACS on PK-59 cells
T1 chain: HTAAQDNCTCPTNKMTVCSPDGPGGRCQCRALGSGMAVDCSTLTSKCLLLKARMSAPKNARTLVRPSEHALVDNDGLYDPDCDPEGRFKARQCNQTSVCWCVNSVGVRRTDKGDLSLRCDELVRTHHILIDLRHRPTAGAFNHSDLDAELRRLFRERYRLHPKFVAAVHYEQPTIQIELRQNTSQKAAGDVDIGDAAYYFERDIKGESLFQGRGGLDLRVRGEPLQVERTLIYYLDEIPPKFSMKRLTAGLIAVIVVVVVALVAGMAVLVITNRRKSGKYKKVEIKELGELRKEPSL

[2] = molecular target: T1, human TROP-2 (hTROP-2); test: FACS on BxPC-3 cells
[3] = molecular target: T2, Table 11 peptide No. 1 (human, not fully specified); test: PEPSCAN CLIPS peptide ELISA
T2 peptide: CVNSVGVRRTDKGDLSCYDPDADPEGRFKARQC

[4] = molecular target: T3, Table 11 peptide No. 2 (human); test: PEPSCAN CLIPS peptide ELISA
T3 peptide: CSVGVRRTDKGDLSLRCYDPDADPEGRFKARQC

[5] = molecular target: T4, Table 11 peptide No. 3 (human); test: PEPSCAN CLIPS peptide ELISA
T4 peptide: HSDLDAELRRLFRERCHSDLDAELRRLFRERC

[6] = molecular target: T5, Table 11 peptide No. 4 (human); test: PEPSCAN CLIPS peptide ELISA
T5 peptide: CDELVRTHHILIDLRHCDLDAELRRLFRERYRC

[7] = molecular target: T6, Table 11 peptide No. 6 (human); test: PEPSCAN CLIPS peptide ELISA
T6 peptide: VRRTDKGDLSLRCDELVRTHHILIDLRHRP

[8] = molecular target: T7, Table 11 peptide No. 7 (human); test: PEPSCAN CLIPS peptide ELISA
T7 peptide: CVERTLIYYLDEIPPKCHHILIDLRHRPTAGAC

[9] = molecular target: T8, Table 11 peptide No. 8 (human); test: PEPSCAN CLIPS peptide ELISA
T8 peptide: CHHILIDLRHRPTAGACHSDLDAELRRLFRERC

[10] = molecular target: T9, Table 11 peptide No. 9 (human); test: PEPSCAN CLIPS peptide ELISA
T9 peptide: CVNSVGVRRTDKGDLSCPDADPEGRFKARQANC

[11] = molecular target: T10, Table 11 peptide No. 10 (human); test: PEPSCAN CLIPS peptide ELISA
T10 peptide: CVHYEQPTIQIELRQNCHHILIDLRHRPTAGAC

[12] = molecular target: T11, Table 11 peptide No. 11 (human); test: PEPSCAN CLIPS peptide ELISA
T11 peptide: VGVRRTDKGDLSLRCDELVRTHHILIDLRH

[13] = molecular target: T12, Table 11 peptide No. 12 (human); test: PEPSCAN CLIPS peptide ELISA
T12 peptide: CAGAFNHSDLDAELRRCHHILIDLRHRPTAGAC

[14] = molecular target: T13, Table 11 peptide No. 13 (human); test: PEPSCAN CLIPS peptide ELISA
T13 peptide: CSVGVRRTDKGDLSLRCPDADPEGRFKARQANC

[15] = molecular target: T14, Table 11 peptide No. 14 (human); test: PEPSCAN CLIPS peptide ELISA
T14 peptide: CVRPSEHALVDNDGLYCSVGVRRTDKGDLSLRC

[16] = molecular target: T15, Table 11 peptide No. 15 (human); test: PEPSCAN CLIPS peptide ELISA
T15 peptide: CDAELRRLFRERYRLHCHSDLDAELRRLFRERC

[17] = molecular target: Table 11 peptide No. 16 (human); test: PEPSCAN CLIPS peptide ELISA
Table 11 peptide No. 16 (human), sequence (peptide, as listed by the source): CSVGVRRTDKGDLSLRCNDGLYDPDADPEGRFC

[18] = molecular target: T16, Table 11 peptide No. 17 (human); test: PEPSCAN CLIPS peptide ELISA
T16 peptide: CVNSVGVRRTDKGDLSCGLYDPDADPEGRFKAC

[19] = molecular target: T17, Table 11 peptide No. 18 (human); test: PEPSCAN CLIPS peptide ELISA
T17 peptide: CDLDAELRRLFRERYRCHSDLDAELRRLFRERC

[20] = molecular target: T18, Table 11 peptide No. 19 (human); test: PEPSCAN CLIPS peptide ELISA
T18 peptide: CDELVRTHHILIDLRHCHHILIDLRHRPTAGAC

[21] = molecular target: T19, Table 11 peptide No. 20 (human); test: PEPSCAN CLIPS peptide ELISA
T19 peptide: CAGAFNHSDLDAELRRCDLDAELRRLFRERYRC

[22] = molecular target: T20, Table 11 peptide No. 21 (human); test: PEPSCAN CLIPS peptide ELISA
T20 peptide: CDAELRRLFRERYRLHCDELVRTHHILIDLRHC

[23] = molecular target: T21, Table 11 peptide No. 22 (human); test: PEPSCAN CLIPS peptide ELISA
T21 peptide: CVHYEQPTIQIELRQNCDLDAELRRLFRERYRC

[24] = molecular target: T22, Table 11 peptide No. 23 (human); test: PEPSCAN CLIPS peptide ELISA
T22 peptide: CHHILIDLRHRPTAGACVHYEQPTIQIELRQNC

[25] = molecular target: Table 11 peptide No. 24 (human); test: PEPSCAN CLIPS peptide ELISA
Table 11 peptide No. 24 (human), sequence (peptide, as listed by the source): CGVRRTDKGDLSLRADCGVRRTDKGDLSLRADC

[26] = molecular target: T23, Table 11 peptide No. 25 (human); test: PEPSCAN CLIPS peptide ELISA
T23 peptide: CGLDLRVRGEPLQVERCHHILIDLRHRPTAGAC

[27] = molecular target: T24, Table 11 peptide No. 26 (human); test: PEPSCAN CLIPS peptide ELISA
T24 peptide: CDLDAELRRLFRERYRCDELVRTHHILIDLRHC

[28] = molecular target: T25, recombinant protein of the extracellular region of hTROP-2 (human); test: ELISA of free antibody after equilibration with antigen in solution
T25 sequence: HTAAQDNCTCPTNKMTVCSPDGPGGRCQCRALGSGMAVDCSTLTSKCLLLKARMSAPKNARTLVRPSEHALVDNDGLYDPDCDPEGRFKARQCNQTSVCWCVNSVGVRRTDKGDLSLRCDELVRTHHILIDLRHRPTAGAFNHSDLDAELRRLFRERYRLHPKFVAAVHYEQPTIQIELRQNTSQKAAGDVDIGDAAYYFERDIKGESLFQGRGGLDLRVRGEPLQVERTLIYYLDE

mean fluorescence intensity, times that with PE-labeled anti-mouse IgG only [1]: 59 times | mean fluorescence intensity, times that with PE-labeled anti-mouse IgG only [2]: 25 times | binding of T6-16 [3]: 1070 | binding of T6-16 [4]: 786 | binding of T6-16 [5]: 714 | binding of T6-16 [6]: 713 | binding of T6-16 [7]: 670 | binding of T6-16 [8]: 626 | binding of T6-16 [9]: 620 | binding of T6-16 [10]: 611 | binding of T6-16 [11]: 602 | binding of T6-16 [12]: 601 | binding of T6-16 [13]: 592 | binding of T6-16 [14]: 585 | binding of T6-16 [15]: 573 | binding of T6-16 [16]: 566 | binding of T6-16 [17]: 559 | binding of T6-16 [18]: 553 | binding of T6-16 [19]: 534 | binding of T6-16 [20]: 534 | binding of T6-16 [21]: 529 | binding of T6-16 [22]: 527 | binding of T6-16 [23]: 526 | binding of T6-16 [24]: 524 | binding of T6-16 [25]: 524 | binding of T6-16 [26]: 521 | binding of T6-16 [27]: 516 | Kd [28]: 4.3 pM
B1: anti-hTROP-2 monoclonal antibody T6-16 (antibody, V domains shown)
VH: EVQLQQSGPELVKPGASVKISCKASGYTFTDYNMHWVKQSHGKNLEWIGYIYPYNGGTGYNQRFKSRATMTVDKSSSTAYMELRSLTSDDSAVYYCAREDYGSSPSYAMDYWGQGTSVIVSS
VL: DVVMTQTPLSLPVSLGDQASISCRSSQSLVHGNGNTYLHWYLQKPGQSPKLLIYKVSNRFSGVPDRFSGSGSGTDFTLKISRVEAEDLGVYFCSQTTHVPTFGSGTKLEIK

From US9062100B2, “Anti-human TROP-2 antibody having anti-tumor activity in vivo” (LIVTECH, INC., dated 2015)
